Earlier results as cited in paper PMC3309041.

Molecular target: IL-8 (monomeric) (Homo sapiens) (UniProt P10145)
Details: cited from earlier work

IL-8 (monomeric) (Homo sapiens), sequence (P10145 28-99): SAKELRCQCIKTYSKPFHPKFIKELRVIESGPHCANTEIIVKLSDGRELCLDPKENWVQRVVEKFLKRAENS
CXCR1 N-terminal peptide N-terminus, sequence (P21109 11-44): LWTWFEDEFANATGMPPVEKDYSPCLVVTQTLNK

Substance: CXCR1 N-terminal peptide N-terminus (from UniProt P21109)
- Kd: 8.6 µM
